The text below walks through data of patent US20260049138A1 (Chugai, published 2026).

The labels stand for the following.
B1: GLS3000 F55I one-arm antibody (antibody, human IgG1, kappa, L234A L235A, N297A, name in Kabat numbering)
heavy: QVQLVESGGGVVQPGRSLRLSCAASGFTFSNAWMHWVRQAPGKGLEWVAQIKAKSNNYATYYAESVKGRFTISRDDSKNSLYLQMNSLKTEDTAVYYCRYVHYGAYYGVDAWGQGTTVTVSSASTKGPSVFPLAPSSKSTSGGTAALGCLVKDYFPEPVTVSWNSGALTSGVHTFPAVLQSSGLYSLSSVVTVPSSSLGTQTYICNVNHKPSNTKVDKKVEPKSCDKTHTCPPCPAPEAAGGPSVFLFPPKPKDTLMISRTPEVTCVVVDVSHEDPEVKFNWYVDGVEVHNAKTKPREEQYASTYRVVSVLTVLHQDWLNGKEYKCKVSNKALPAPIEKTISKAKGQPREPQVYTLPPSRCELTKNQVSLSCAVKGFYPSDIAVEWESNGQPENNYKTTPPVLDSDGSFFLVSKLTVDKSRWQQGNVFSCSVMHEALHNHYTQKSLSLSPDYKDDDDK
chain: EPKSSDKTHTCPPCPAPELLGGPSVFLFPPKPKDTLMISRTPEVTCVVVDVSHEDPEVKFNWYVDGVEVHNAKTKPREEQYNSTYRVVSVLTVLHQDWLNGKEYKCKVSNKALPAPIEKTISKAKGQPREPQVCTLPPSRDELTKNQVSLWCLVKGFYPSDIAVEWESNGQPENNYKTTPPVLDSDGSFFLYSKLTVDKSRWQQGNVFSCSVMHEALHNRYTQKSLSLSP
light: DIVMTQSPLSLPVTPGEPASISCRSSQSLVHSNRNTYLHWYQQKPGQAPRLLIYKVSNRISGVPDRFSGSGSGTDFTLKISRVEAEDVGVYYCGQGTQVPYTFGQGTKLEIKRTVAAPSVFIFPPSDEQLKSGTASVVCLLNNFYPREAKVQWKVDNALQSGNSQESVTEQDSKDSTYSLSSTLTLSKADYEKHKVYACEVTHQGLSSPVTKSFNRGEC
B2: GLS3000 F55K one-arm antibody (antibody, human IgG1, kappa, L234A L235A, N297A, name in Kabat numbering)
heavy: QVQLVESGGGVVQPGRSLRLSCAASGFTFSNAWMHWVRQAPGKGLEWVAQIKAKSNNYATYYAESVKGRFTISRDDSKNSLYLQMNSLKTEDTAVYYCRYVHYGAYYGVDAWGQGTTVTVSSASTKGPSVFPLAPSSKSTSGGTAALGCLVKDYFPEPVTVSWNSGALTSGVHTFPAVLQSSGLYSLSSVVTVPSSSLGTQTYICNVNHKPSNTKVDKKVEPKSCDKTHTCPPCPAPEAAGGPSVFLFPPKPKDTLMISRTPEVTCVVVDVSHEDPEVKFNWYVDGVEVHNAKTKPREEQYASTYRVVSVLTVLHQDWLNGKEYKCKVSNKALPAPIEKTISKAKGQPREPQVYTLPPSRCELTKNQVSLSCAVKGFYPSDIAVEWESNGQPENNYKTTPPVLDSDGSFFLVSKLTVDKSRWQQGNVFSCSVMHEALHNHYTQKSLSLSPDYKDDDDK
chain: EPKSSDKTHTCPPCPAPELLGGPSVFLFPPKPKDTLMISRTPEVTCVVVDVSHEDPEVKFNWYVDGVEVHNAKTKPREEQYNSTYRVVSVLTVLHQDWLNGKEYKCKVSNKALPAPIEKTISKAKGQPREPQVCTLPPSRDELTKNQVSLWCLVKGFYPSDIAVEWESNGQPENNYKTTPPVLDSDGSFFLYSKLTVDKSRWQQGNVFSCSVMHEALHNRYTQKSLSLSP
light: DIVMTQSPLSLPVTPGEPASISCRSSQSLVHSNRNTYLHWYQQKPGQAPRLLIYKVSNRKSGVPDRFSGSGSGTDFTLKISRVEAEDVGVYYCGQGTQVPYTFGQGTKLEIKRTVAAPSVFIFPPSDEQLKSGTASVVCLLNNFYPREAKVQWKVDNALQSGNSQESVTEQDSKDSTYSLSSTLTLSKADYEKHKVYACEVTHQGLSSPVTKSFNRGEC
B3: GLS3000 F55M one-arm antibody (antibody, human IgG1, kappa, L234A L235A, N297A, name in Kabat numbering)
heavy: QVQLVESGGGVVQPGRSLRLSCAASGFTFSNAWMHWVRQAPGKGLEWVAQIKAKSNNYATYYAESVKGRFTISRDDSKNSLYLQMNSLKTEDTAVYYCRYVHYGAYYGVDAWGQGTTVTVSSASTKGPSVFPLAPSSKSTSGGTAALGCLVKDYFPEPVTVSWNSGALTSGVHTFPAVLQSSGLYSLSSVVTVPSSSLGTQTYICNVNHKPSNTKVDKKVEPKSCDKTHTCPPCPAPEAAGGPSVFLFPPKPKDTLMISRTPEVTCVVVDVSHEDPEVKFNWYVDGVEVHNAKTKPREEQYASTYRVVSVLTVLHQDWLNGKEYKCKVSNKALPAPIEKTISKAKGQPREPQVYTLPPSRCELTKNQVSLSCAVKGFYPSDIAVEWESNGQPENNYKTTPPVLDSDGSFFLVSKLTVDKSRWQQGNVFSCSVMHEALHNHYTQKSLSLSPDYKDDDDK
chain: EPKSSDKTHTCPPCPAPELLGGPSVFLFPPKPKDTLMISRTPEVTCVVVDVSHEDPEVKFNWYVDGVEVHNAKTKPREEQYNSTYRVVSVLTVLHQDWLNGKEYKCKVSNKALPAPIEKTISKAKGQPREPQVCTLPPSRDELTKNQVSLWCLVKGFYPSDIAVEWESNGQPENNYKTTPPVLDSDGSFFLYSKLTVDKSRWQQGNVFSCSVMHEALHNRYTQKSLSLSP
light: DIVMTQSPLSLPVTPGEPASISCRSSQSLVHSNRNTYLHWYQQKPGQAPRLLIYKVSNRMSGVPDRFSGSGSGTDFTLKISRVEAEDVGVYYCGQGTQVPYTFGQGTKLEIKRTVAAPSVFIFPPSDEQLKSGTASVVCLLNNFYPREAKVQWKVDNALQSGNSQESVTEQDSKDSTYSLSSTLTLSKADYEKHKVYACEVTHQGLSSPVTKSFNRGEC
B4: GLS3000 F55N one-arm antibody (antibody, human IgG1, kappa, L234A L235A, N297A, name in Kabat numbering)
heavy: QVQLVESGGGVVQPGRSLRLSCAASGFTFSNAWMHWVRQAPGKGLEWVAQIKAKSNNYATYYAESVKGRFTISRDDSKNSLYLQMNSLKTEDTAVYYCRYVHYGAYYGVDAWGQGTTVTVSSASTKGPSVFPLAPSSKSTSGGTAALGCLVKDYFPEPVTVSWNSGALTSGVHTFPAVLQSSGLYSLSSVVTVPSSSLGTQTYICNVNHKPSNTKVDKKVEPKSCDKTHTCPPCPAPEAAGGPSVFLFPPKPKDTLMISRTPEVTCVVVDVSHEDPEVKFNWYVDGVEVHNAKTKPREEQYASTYRVVSVLTVLHQDWLNGKEYKCKVSNKALPAPIEKTISKAKGQPREPQVYTLPPSRCELTKNQVSLSCAVKGFYPSDIAVEWESNGQPENNYKTTPPVLDSDGSFFLVSKLTVDKSRWQQGNVFSCSVMHEALHNHYTQKSLSLSPDYKDDDDK
chain: EPKSSDKTHTCPPCPAPELLGGPSVFLFPPKPKDTLMISRTPEVTCVVVDVSHEDPEVKFNWYVDGVEVHNAKTKPREEQYNSTYRVVSVLTVLHQDWLNGKEYKCKVSNKALPAPIEKTISKAKGQPREPQVCTLPPSRDELTKNQVSLWCLVKGFYPSDIAVEWESNGQPENNYKTTPPVLDSDGSFFLYSKLTVDKSRWQQGNVFSCSVMHEALHNRYTQKSLSLSP
light: DIVMTQSPLSLPVTPGEPASISCRSSQSLVHSNRNTYLHWYQQKPGQAPRLLIYKVSNRNSGVPDRFSGSGSGTDFTLKISRVEAEDVGVYYCGQGTQVPYTFGQGTKLEIKRTVAAPSVFIFPPSDEQLKSGTASVVCLLNNFYPREAKVQWKVDNALQSGNSQESVTEQDSKDSTYSLSSTLTLSKADYEKHKVYACEVTHQGLSSPVTKSFNRGEC
B5: GLS3000 F55L one-arm antibody (antibody, human IgG1, kappa, L234A L235A, N297A, name in Kabat numbering)
heavy: QVQLVESGGGVVQPGRSLRLSCAASGFTFSNAWMHWVRQAPGKGLEWVAQIKAKSNNYATYYAESVKGRFTISRDDSKNSLYLQMNSLKTEDTAVYYCRYVHYGAYYGVDAWGQGTTVTVSSASTKGPSVFPLAPSSKSTSGGTAALGCLVKDYFPEPVTVSWNSGALTSGVHTFPAVLQSSGLYSLSSVVTVPSSSLGTQTYICNVNHKPSNTKVDKKVEPKSCDKTHTCPPCPAPEAAGGPSVFLFPPKPKDTLMISRTPEVTCVVVDVSHEDPEVKFNWYVDGVEVHNAKTKPREEQYASTYRVVSVLTVLHQDWLNGKEYKCKVSNKALPAPIEKTISKAKGQPREPQVYTLPPSRCELTKNQVSLSCAVKGFYPSDIAVEWESNGQPENNYKTTPPVLDSDGSFFLVSKLTVDKSRWQQGNVFSCSVMHEALHNHYTQKSLSLSPDYKDDDDK
chain: EPKSSDKTHTCPPCPAPELLGGPSVFLFPPKPKDTLMISRTPEVTCVVVDVSHEDPEVKFNWYVDGVEVHNAKTKPREEQYNSTYRVVSVLTVLHQDWLNGKEYKCKVSNKALPAPIEKTISKAKGQPREPQVCTLPPSRDELTKNQVSLWCLVKGFYPSDIAVEWESNGQPENNYKTTPPVLDSDGSFFLYSKLTVDKSRWQQGNVFSCSVMHEALHNRYTQKSLSLSP
light: DIVMTQSPLSLPVTPGEPASISCRSSQSLVHSNRNTYLHWYQQKPGQAPRLLIYKVSNRLSGVPDRFSGSGSGTDFTLKISRVEAEDVGVYYCGQGTQVPYTFGQGTKLEIKRTVAAPSVFIFPPSDEQLKSGTASVVCLLNNFYPREAKVQWKVDNALQSGNSQESVTEQDSKDSTYSLSSTLTLSKADYEKHKVYACEVTHQGLSSPVTKSFNRGEC
B6: GLS3000 F55P one-arm antibody (antibody, human IgG1, kappa, L234A L235A, N297A, name in Kabat numbering)
heavy: QVQLVESGGGVVQPGRSLRLSCAASGFTFSNAWMHWVRQAPGKGLEWVAQIKAKSNNYATYYAESVKGRFTISRDDSKNSLYLQMNSLKTEDTAVYYCRYVHYGAYYGVDAWGQGTTVTVSSASTKGPSVFPLAPSSKSTSGGTAALGCLVKDYFPEPVTVSWNSGALTSGVHTFPAVLQSSGLYSLSSVVTVPSSSLGTQTYICNVNHKPSNTKVDKKVEPKSCDKTHTCPPCPAPEAAGGPSVFLFPPKPKDTLMISRTPEVTCVVVDVSHEDPEVKFNWYVDGVEVHNAKTKPREEQYASTYRVVSVLTVLHQDWLNGKEYKCKVSNKALPAPIEKTISKAKGQPREPQVYTLPPSRCELTKNQVSLSCAVKGFYPSDIAVEWESNGQPENNYKTTPPVLDSDGSFFLVSKLTVDKSRWQQGNVFSCSVMHEALHNHYTQKSLSLSPDYKDDDDK
chain: EPKSSDKTHTCPPCPAPELLGGPSVFLFPPKPKDTLMISRTPEVTCVVVDVSHEDPEVKFNWYVDGVEVHNAKTKPREEQYNSTYRVVSVLTVLHQDWLNGKEYKCKVSNKALPAPIEKTISKAKGQPREPQVCTLPPSRDELTKNQVSLWCLVKGFYPSDIAVEWESNGQPENNYKTTPPVLDSDGSFFLYSKLTVDKSRWQQGNVFSCSVMHEALHNRYTQKSLSLSP
light: DIVMTQSPLSLPVTPGEPASISCRSSQSLVHSNRNTYLHWYQQKPGQAPRLLIYKVSNRPSGVPDRFSGSGSGTDFTLKISRVEAEDVGVYYCGQGTQVPYTFGQGTKLEIKRTVAAPSVFIFPPSDEQLKSGTASVVCLLNNFYPREAKVQWKVDNALQSGNSQESVTEQDSKDSTYSLSSTLTLSKADYEKHKVYACEVTHQGLSSPVTKSFNRGEC
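Note: Light-chain single-residue variant antibodies injected over amine-coupled CD3ε homodimer on a CM4 chip at 25 °C, bound amount divided by that of the GLS3000-containing antibody.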

The target in the experiment is T1, CD3ε homodimer protein (human, UniProt P07766 23-126, limits assumed).
T1 construct: also called CD3 (CD3ε)
T1 sequence (P07766 23-126 limits assumed): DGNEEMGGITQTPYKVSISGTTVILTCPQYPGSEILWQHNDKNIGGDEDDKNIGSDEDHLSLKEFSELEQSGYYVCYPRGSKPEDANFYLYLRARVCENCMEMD
Kind of experiment: SPR Biacore T200, CD3ε homodimer on chip. (SPR reads the build-up and loss of mass on a sensor chip optically.)
With B1, the “ratio of amount bound vs unaltered GLS3000” value (“ratio of amount bound” below) came out at 0.82.
As to B2, the “ratio of amount bound” value turned out to be 1.33.
To B3 belongs 0.8; to B4, 0.98; to B5, 0.76.
Take B6: the “ratio of amount bound” value came to 1.16.
